In EP4806905A1, “PEPTIDE, PEPTIDE COMPLEX, PHARMACEUTICAL COMPOSITION, COMPOSITION FOR CELL CULTURE, AND COMPOSITION FOR MEDICAL USE, DIAGNOSTIC USE, OR RESEARCH USE” (PeptiDream Inc., priority 2023, dated 2025):
Numbered stars: 1 amine (or outer) side, 2 acyl side, 3 side chain; on linkers, the order of the positions; unused ones are H or OH. Square brackets hold non-standard residues; d marks the D form. Ends that are not written are not given here. X1 = (S)‑3‑(2-carboxy-2-(methylamino)ethyl)benzoic acid, CN([C@@H](Cc1cccc(C(=O)[*:3])c1)C(=O)[*:2])[*:1]; Trp(7-aza) = N[C@@H](Cc1c[nH]c2ncccc12)C(=O)O; Ala(4-THP) = N[C@@H](CC1CCOCC1)C(=O)O; NMe4Pal = CN[C@@H](Cc1ccncc1)C(=O)O; NMeF = CN[C@@H](Cc1ccccc1)C(=O)O; Tic = O=C(O)[C@@H]1Cc2ccccc2CN1; Cit = NC(=O)NCCC[C@H](N)C(=O)O; NMeV = CN[C@H](C(=O)O)C(C)C

Key:
[1] = molecular target: T1, Frizzled-7 (FZD7) (Homo sapiens, UniProt O75084); experiment: Evaluation of binding activity to Frizzled using ELISA (Frizzled-7); conditions: peptide complex (linker structure number 9 added to the peptide) diluted to 10 nM; absorbance at 450 nm minus wells with no added peptide complex
T1 construct: purchased R&D systems 6178-FZ
Protocol: (§1) In order to evaluate the binding activity of the synthesized peptide complexes (peptide complexes having the linker structure number 9 added to peptide sequence numbers 1 to 78) to Frizzled, a binding activity evaluation using the ELISA method was conducted using the steps described below.
(§2) Biotin-labeled polyclonal anti-human IgG (eBioscience; 13-4998) was added to a streptavidin-coated 96-well plate (Thermo; 436014) in an amount of 200 µg per well, and left to stand for 30 minutes.
(§3) Following washing three times with PBS-T, 3 pmol of Fc-tagged Frizzled-2 (R&D systems; 1307-FZ), Frizzled-7 (R&D systems; 6178-FZ), or Frizzled-8 (R&D systems; 6129-FZ) was added per well and left to stand for 30 minutes to immobilize each Frizzled on the plate.
(§4) Following washing three times with PBS-T, the peptide complex diluted to 10 nM was added to Frizzled-2 and Frizzled-7, the peptide complex diluted to 500 nM was added to Frizzled-8, and the plate was left to stand for one hour.
(§5) Following washing three times with PBS-T, Anti-HA-tag mAb-HRP-Direct T (MBL; M180-7) that had been diluted 5000-fold with PBS-T was added and left to stand for 30 minutes.
(§6) Following washing three times with PBS-T, SureBlue TMB I-Component Microwell Peroxidase Substrate (SeraCare; 5120-0077) was added and left to stand for 10 minutes, and the reaction was then halted by adding an equal volume of TMB Stop Solution (SeraCare; 5150-0021).
(§7) Using an Infinite M Nano* (TECAN), the absorbance was measured at 450 nm. The binding signal for each peptide complex was calculated by subtracting the absorbance in those wells containing no added peptide complex from the absorbance in those wells containing the added peptide.

[2] = molecular target: T2, Frizzled-2 (FZD2) (Mus musculus, UniProt Q9JIP6); experiment: Evaluation of binding activity to Frizzled using ELISA (Frizzled-2); conditions: peptide complex (linker structure number 9 added to the peptide) diluted to 10 nM; absorbance at 450 nm minus wells with no added peptide complex
T2 construct: purchased R&D systems 1307-FZ
Protocol: as §1, §2, §3, §4, §5, §6, §7

[3] = molecular target: T3, Frizzled-8 (FZD8) (Homo sapiens, UniProt Q9H461); experiment: Evaluation of binding activity to Frizzled using ELISA (Frizzled-8); conditions: peptide complex (linker structure number 9 added to the peptide) diluted to 500 nM; absorbance at 450 nm minus wells with no added peptide complex
T3 construct: purchased R&D systems 6129-FZ
T3 sequence (Q9H461 28-158 limits assumed): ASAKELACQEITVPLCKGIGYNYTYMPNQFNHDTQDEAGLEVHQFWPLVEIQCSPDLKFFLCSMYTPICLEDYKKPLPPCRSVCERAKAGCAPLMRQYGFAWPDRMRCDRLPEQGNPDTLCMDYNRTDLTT
Protocol: as §1, §2, §3, §4, §5, §6, §7

[4] = test system: TCF/LEF Reporter-HEK 293 cells; experiment: Evaluation of Wnt signal activation capability, TCF/LEF reporter assay; format: cell-based; conditions: dimer structure numbers 1 to 43; classes 2-A to 2-E; tested at 0.1/1/10/100/1,000 nM depending on the dimer
Protocol: In order to evaluate the Wnt signal activation capability of each of the synthesized peptide complexes (dime structure numbers 1 to 67), transcriptional activity was evaluated using a TCF/LEF reporter.
TCF/LEF Reporter-HEK 293 cells (BPS Bioscience) were cultured in EMEM (Fuji FILM) containing 10% FBS (Thermo Fisher Scientific), 50 µg/mL Gentamicin (Nacalai Tesque), and 400 µg/mL Geneticin (Thermo Fisher Scientific).
The cells were detached using TrypLE (Thermo Fisher Scientific) and then suspended in EMEM containing 10% FBS, 50 µg/mL Gentamicin, and 10 mM LiCl (Sigma).
The cells were seeded into a white 96-well plate (Thermo Fisher Scientific) for cell adhesion and luminescence detection at a rate of 35,000 cells per well, and were then cultured overnight.
Subsequently, Recombinant Human Wnt-3a Protein (R&D systems) or a peptide complex was added in the presence of 1 nM Recombinant Human R-spondin 1 (R&D systems), and stimulation was conducted for 5 hours and 30 minutes in a CO2 incubator at 37°C.
The ONE-Glo Luciferase Assay System (Peomega) was added and shaken for 4 minutes, and the resulting luminescent signals were detected using a SpectraMax Paradigm multimode microplate reader (Molecular Devices).
The thus obtained signals were analyzed using a GraphPad Prism, and the percentage activity was calculated with the maximum value of the signal value induced by Wnt3a deemed to be 100% and the signal value with no stimulus deemed to be 0%. Evaluations were conducted with the Wnt concentration within a range from […] to determine the 100% value.
For each dimer structure number, tests were conducted using the peptide complex addition concentrations described below. • a) For dimer structure number 1, 1 nM, 10 nM, 100 nM, and 1,000 nM • b) For dimer structure numbers 2 to 4, 1 nM, 10 nM, and 100 nM • c) For dimer structure numbers 5 to 14, 0.1 nM, 1 nM, 10 nM, and 100 nM • d) For dimer structure numbers 15 to 43, 0.1 nM, 1 nM, and 10 nM • e) For dimer strength numbers 44 to 56, six points starting at 30 nM and then reducing by a common ratio of 1/4 (0.03 nM, 0.12 nM, 0.47 nM, 1.9 nM, 7.5 nM and 30 nM) • f) For dimer strength numbers 57 to 67, six points starting at 30 nM and then reducing by a common ratio of 1/5 (0.0096, 0.048, 0.24, 1.2, 6.0, and 30 nM)

| Substance | ELISA signal Frizzled-7 (FZD7) [1] | ELISA signal Frizzled-2 (FZD2) [2] | ELISA signal Frizzled-8 (FZD8) [3] | TCF/LEF Reporter Assay Result [4] |
| --- | --- | --- | --- | --- |
| Dimer structure number 46: dimer of peptide SEQ ID NO: 35 and peptide SEQ ID NO: 79 via linker structure number 8 (chain 1 [dF]S[Ala(4-THP)]IRY[NMeF]VT[NMeF]I[NMeV]GCG; chain 2 FRWDVR[NMeF]SNWN[Tic]NCG; cysteine pairing not given here; also: dimer via linker structure number 8, attachment not given here) | 0.3 | 0.3 | 0.0 | 2-C (peptide complexes that exhibited 50% or more activity when 10 nM of the peptide complex was added) |
| Dimer structure number 66: dimer of peptide SEQ ID NO: 76 and peptide SEQ ID NO: 163 via linker structure number 3 (chain 1 [dF]S[Cit]IRY[NMeF]VT[NMe4Pal]I[NMeV][dS]CG; chain 2 FR[Trp(7-aza)]DVR[X1]SE[Trp(7-aza)]N[Tic]DCG; not fully specified; cysteine pairing not given here; also: dimer via linker structure number 3, attachment not given here) | 1.7 | 1.7 | 1.5 | 2-B (peptide complexes that exhibited 50% or more activity when 1 nM of the peptide complex was added) |
| Peptide sequence number 99: peptide of formula B3, amino acid residues shown in Table 2 (FRWDVR[NMeF]SN[Trp(7-aza)]N[Tic]NCG) | 0.0 | 0.0 | 0.4 | 2-C (peptide complexes that exhibited 50% or more activity when 10 nM of the peptide complex was added) |
| df-S-D-I-R-Y-MeF-V-T-MeF-I-MeV-ds-C-G ([dF]SDIRY[NMeF]VT[NMeF]I[NMeV][dS]CG) [Peptide sequence number 66] | 1.4 | 1.5 | 0.7 | 2-C (peptide complexes that exhibited 50% or more activity when 10 nM of the peptide complex was added) |
